From paper PMC2928861

Experiments:
[1] = biological target: ribosome-nascent chain complex (RNC) of Sec61β, TMD inside the ribosomal tunnel (UniProt P60468); assay: co-IP
[2] = biological target: ribosomes purified under native conditions from reticulocyte lysate; assay: co-sedimentation

Sequence of UniProt P60468 (P60468 whole entry, looked up, one chain of several): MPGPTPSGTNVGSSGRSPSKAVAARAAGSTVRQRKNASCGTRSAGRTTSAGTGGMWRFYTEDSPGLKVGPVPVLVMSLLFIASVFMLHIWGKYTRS

Substance | occupancy of RNCs [1] [%] | percent ribosome-bound [2] [%]
Bat3 complex (Bat3, TRC35 and Ubl4A) (from UniProt P46379;Q7L5D6;P11441) | 27 | 
TRC40 (from UniProt O43681 1-348) (natural protein) |  | < 1
SRP (signal recognition particle), followed by its subunit SRP54 (from UniProt P61011 1-504) (complex) | 7 | 30 to 50
